Experimental data from the supplement of paper PMC9732359.
± gives the uncertainty stated by the source.

Assay: protein stability index of a GFP-peptide fusion (yeast GPS) (PSI 1-4); higher = more stable; sorted into four equal gates, so the index is relative within each strain
Procedure, shortened: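 Peptides tiling yeast proteins in 17-residue segments were fused downstream of GFP, with Cherry expressed from the same plasmid. As a pooled library in yeast, mid-log cultures grown in leucine-free medium were sorted into four equal gates by GFP/Cherry fluorescence ratio. Gate plasmids were PCR-amplified and Illumina-sequenced, and barcodes linked reads to strains. Each peptide received a protein stability index equal to the sum of each gate's read frequency times its gate number.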

Sequence	protein stability index (doa10∆)	protein stability index (pdr5∆)	protein stability index (san1∆)	protein stability index (ubr1∆)
NTVPQVTNFNSTNEDQN [SRB5]	2.83 ± 0.09	3.21 ± 0.056	3.02 ± 0.051	2.9 ± 0.051
LALGCHFQDQKNKKIEV [POP7]	2.65 ± 0.18	2.97 ± 0.16	2.92 ± 0.12	2.29 ± 0.11
NLGIPKIAYRGVKDCQE [SSN2]	1.49 ± 0.2	1.58 ± 0.19	1.54 ± 0.26	1.13 ± 0.16
VKSLRQGKSKLIIIAAN [RPL30]	2.03 ± 0.11	1.4 ± 0.11	1.62 ± 0.22	1.96 ± 0.084
KPNLNYFKSILLNKNTG [SWI1]	2.17 ± 0.058	2.19 ± 0.044	1.76 ± 0.066	1.75 ± 0.038
KPMNKGQHKNNTSLNIN [SWP82]	2.92 ± 0.092	2.84 ± 0.091	2.91 ± 0.066	2.98 ± 0.059
ESINNVVDQLWSEISNE [RPN2]	2.77 ± 0.065	2.94 ± 0.053	2.83 ± 0.096	2.63 ± 0.041
GIKAKHDKNIQKLLKQL [ISW2]	2.41 ± 0.048	2.45 ± 0.048	2.45 ± 0.051	2.79 ± 0.033
GDIESLFEQLQTVSNKE [SRP54]	3.08 ± 0.098	2.87 ± 0.079	3.18 ± 0.045	3.12 ± 0.046
IPYSRNAPAWFKLSSES [RPS13]	1.93 ± 0.058	1.92 ± 0.045	2.12 ± 0.074	2.44 ± 0.052
LNKDSTNEFVGSPSLTS [NUT1]	2.96 ± 0.062	3.18 ± 0.057	2.93 ± 0.044	2.9 ± 0.042
FKGTDFVHSVKKFLRVR [SRB4]	2.66 ± 0.077	2.64 ± 0.066	2.83 ± 0.058	2.87 ± 0.054
GKLGQIDYALTAVKQGV [PRE8]	1.36 ± 0.21	1.93 ± 0.13	–	2.54 ± 0.099
VEDELTESIALSSMRFK [RRI1]	3.21 ± 0.067	3.38 ± 0.051	3.21 ± 0.062	3.28 ± 0.051
RLMMNSKVGSADTGRDD [RPN11]	3.39 ± 0.085	3.36 ± 0.068	3.51 ± 0.058	3.52 ± 0.07
EIKDAETSCDNYHPMNI [SMC4]	2.64 ± 0.057	2.83 ± 0.055	3.15 ± 0.043	2.98 ± 0.044
NSTATMQHNPLAGKRGP [PGD1]	3.05 ± 0.047	3.09 ± 0.044	3 ± 0.042	3.03 ± 0.033
LSLTLNTHYHADYRLIL [SNF2]	2.83 ± 0.077	2.98 ± 0.08	2.75 ± 0.1	2.65 ± 0.073
DDFLSKKRKAGRPRGRP [SNF2]	3.25 ± 0.3	3.1 ± 0.12	2.96 ± 0.2	2.89 ± 0.1
VFNDAHVLNKVTLASIL [RPN1]	2.21 ± 0.091	2.09 ± 0.065	2.45 ± 0.096	2.03 ± 0.05
QDRHVIFLAERRILPKP [RPS7A]	2.53 ± 0.23	2.93 ± 0.12	2.86 ± 0.27	2.73 ± 0.088
GSKENYQELGSLQSSSQ [MED2]	3.16 ± 0.15	3.45 ± 0.098	3.27 ± 0.071	3.12 ± 0.093
LYAITFRKGLGNPLLYD [QCR2]	1.25 ± 0.17	1.32 ± 0.25	–	–
GNASLKYIALQVIVDIF [YCG1]	1.2 ± 0.069	1.36 ± 0.076	1.19 ± 0.12	1.54 ± 0.15
ANIELTWAEGTFEQFKD [RPC37]	3.25 ± 0.12	3.18 ± 0.076	3.31 ± 0.16	3.32 ± 0.093
NWYKSKKKAFTKYSAKY [RPL3]	3.23 ± 0.16	3.25 ± 0.1	3.07 ± 0.079	3.01 ± 0.045
LIVDTHVQFRLGNVDAF [PRP8]	2.75 ± 0.11	2 ± 0.11	2.32 ± 0.13	1.72 ± 0.066

Sequence	protein stability index (doa10∆)	protein stability index (pdr5∆)	protein stability index (san1∆)	protein stability index (ubr1∆)
LPNEAGRLEIFKIHTAK [RPT4]	2.6 ± 0.16	3.07 ± 0.16	2.92 ± 0.19	2.66 ± 0.11
EGMFANANRVFRTRFQD [SMC2]	2.26 ± 0.097	1.76 ± 0.089	2.68 ± 0.25	2.31 ± 0.078
GILYMGQGEQVDDVLET [RPN1]	1.23 ± 0.16	1.19 ± 0.15	1.07 ± 0.18	1.23 ± 0.11
TTESNSRLKALNLQFKA [YLR335W/NUP2]	3.25 ± 0.11	3.04 ± 0.064	3.15 ± 0.066	2.98 ± 0.073
FLDSQRVWAEYATKRQE [PRP8]	1.54 ± 0.078	2 ± 0.07	1.92 ± 0.097	2.07 ± 0.083
IKIEDFVDDMLRDYRFE [SNF5]	3 ± 0.068	3.16 ± 0.073	3.1 ± 0.067	2.97 ± 0.078
EIEMKNKLEKLNSLLTY [SMC4]	1.71 ± 0.055	1.87 ± 0.058	1.85 ± 0.1	1.61 ± 0.04
TNFSPTPANNGENAAEK [SNF2]	2.42 ± 0.067	2.77 ± 0.072	2.21 ± 0.074	2.81 ± 0.05
SVRKFLEIALFKYRKAR [RPO31]	2.31 ± 0.12	1.18 ± 0.097	1.36 ± 0.17	1.32 ± 0.15
NNETEQLKAEEKKILNQ [SMC1]	3.11 ± 0.12	3.15 ± 0.17	3.13 ± 0.17	3.01 ± 0.11
TTLDAEKVFTQGLNILE [FAS1]	3.17 ± 0.11	3.21 ± 0.1	3.32 ± 0.091	3.28 ± 0.064
NIKNTNEEATPIPSSET [RRP6]	2.61 ± 0.049	2.98 ± 0.052	2.44 ± 0.048	2.67 ± 0.056
KEALLGQLLKDHLIIEP [ARP9]	1.79 ± 0.12	1.51 ± 0.077	1.18 ± 0.16	2.45 ± 0.094
FRHHVQIQQQQQKQQQQ [SNF5]	2.71 ± 0.17	–	3.07 ± 0.13	2.57 ± 0.083
LYEKLKQEIMMSDLFTF [ISW2]	2.69 ± 0.099	2.34 ± 0.063	2.14 ± 0.1	2.64 ± 0.06
CELLKLTNEDPPGLMYL [SSN2]	2.85 ± 0.18	3.06 ± 0.19	3.26 ± 0.12	3.36 ± 0.11
DLMDDMSDISDLDDLGF [RPN3]	1.82 ± 0.098	1.89 ± 0.081	1.57 ± 0.14	1.74 ± 0.075
SPDQMRNLQMGLRNQNM [GRR1]	3.23 ± 0.12	3.52 ± 0.16	3.22 ± 0.088	2.71 ± 0.082
LLTNSNNGSSNNNTQNT [SNF5]	2.99 ± 0.082	3.25 ± 0.084	3.17 ± 0.069	3.18 ± 0.055
QQENSKSGKRKPNIILD [RPC31]	2.83 ± 0.099	2.83 ± 0.086	2.64 ± 0.089	2.79 ± 0.076
QQPNPLHGLTPTAKDVE [GAL11]	3.17 ± 0.053	2.98 ± 0.041	3.15 ± 0.06	3.07 ± 0.033
RILSTLDRELLKPSMSV [RPT3]	3.04 ± 0.081	2.73 ± 0.11	3.07 ± 0.073	2.57 ± 0.15
SLTEATKTNVDNNSKAE [YLR335W/NUP2]	3.14 ± 0.052	3.35 ± 0.064	3.14 ± 0.062	3.32 ± 0.042
IPDMSKNVELGWKPLRY [SNU114]	3.29 ± 0.24	3.23 ± 0.23	2.58 ± 0.23	3.22 ± 0.15
VTEDGTVVTVVSTAKFS [RPL22A]	2.52 ± 0.13	2.81 ± 0.14	2.2 ± 0.12	2.59 ± 0.061
YAIKKKDELERVAKSNR [RPS5]	3.41 ± 0.061	3.35 ± 0.073	3.44 ± 0.043	3.23 ± 0.068
